Patent US8333970B2, “Methods of monitoring the efficacy of anti-CD40 antibodies in treating a subject having an inflammatory or autoimmune disease” (Novartis AG, priority 2005, dated 2012)
“Also recorded” adds a separate entry of the source.

Assays:
[1] = test system: primary cancer cells from NHL patients; assay: ADCC on primary cancer cells; assay type: cell-based, human; conditions: in vitro
Source text: (§1) 4, 2003, Nov. 26, 2003, and Apr. 27, 2004, and assigned U.S. Patent Application Nos. 60/517,337 , 60/525,579, and 60/565,710, respectively, and International Patent Application No. PCT/US2004/037152, also entitled “Antagonist Anti-CD40 Monoclonal Antibodies and Methods for Their Use,” filed Nov. 4, 2004; the contents of each of which are herein incorporated by reference in their entirety.

[2] = molecular target: soluble CD40 (Homo sapiens, UniProt P25942); assay: ELISA-type assay, binding to soluble CD40; conditions: ELISA-type assays
Chain of soluble CD40 (P25942 21-193 limits assumed): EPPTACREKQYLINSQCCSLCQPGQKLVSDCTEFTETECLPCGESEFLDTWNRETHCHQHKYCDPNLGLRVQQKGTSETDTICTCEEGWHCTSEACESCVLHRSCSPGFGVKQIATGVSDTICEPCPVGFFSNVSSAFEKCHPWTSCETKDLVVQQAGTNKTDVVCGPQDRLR
Source text: (§2) 2, 2000, and PCT International Application No. PCT/US01/30857, also titled “Human Anti-CD40 Antibodies,” filed Oct. 2, 2001, both of which are herein incorporated by reference in their entirety.

[3] = molecular target: cell-surface CD40 (Homo sapiens, UniProt P25942); assay: Flow cytometric (FACS) assay of CD40 binding and CD40-ligand blocking
Chain of cell-surface CD40 (P25942 21-277): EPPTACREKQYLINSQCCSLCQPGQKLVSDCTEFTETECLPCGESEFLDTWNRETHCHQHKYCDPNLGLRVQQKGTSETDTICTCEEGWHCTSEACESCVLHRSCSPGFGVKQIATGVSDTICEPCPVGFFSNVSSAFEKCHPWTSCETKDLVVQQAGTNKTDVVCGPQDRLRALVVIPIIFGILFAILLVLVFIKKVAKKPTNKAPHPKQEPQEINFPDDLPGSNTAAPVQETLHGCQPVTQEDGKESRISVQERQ
Source text: as §2

[4] = test system: cancer cells from NHL and CLL patients; assay: In vitro CD40 ligand-mediated proliferation of patient cancer cells; assay type: cell-based, human
Source text: as §1

[5] = test system: B cells from normal human subjects; assay: In vitro proliferation of normal human B cells / lymphocytes; assay type: cell-based
Source text: as §2, §1

[6] = test system: CD40-expressing target cells; assay: Antibody dependent cellular cytotoxicity (ADCC); assay type: cell-based; conditions: native antibodies
Source text: as §2
Clones from 7 other hybridomas were identified as having antagonistic activity. Based on their relative antagonistic potency and ADCC activities, two hybridoma clones were selected for further evaluation (Table 1 below). They are named 131.2F8.5.9 (5.9) and 153.8E2.D10.D6.12.12 (12.12).

[7] = test system: monocytes; assay: CD40L-induced cytokine secretion, Meso Scale Discovery multi-array; assay type: cell-based, human; conditions: monocytes, Donor 1, 24 hours
Procedure: (§3) Cells (1×10^5 cells per well) were cultured in a 96-well plate in the presence or absence of CD40L ([…], formaldehyde fixed CHO cells, 2×10^5 per well). […] Production of hIL-6, hIL-8, hIL-10, hTNF-α; hGM-CSF, hIL-1b, hIL-12p70, MCP-1, and MIP-1β beta was measured by Meso Scale Discovery® multi-array system (Meso Scale Discovery, Gaithersburg, Md.).

[8] = test system: normal B cells; assay: as above; assay type: cell-based, human; conditions: normal B cells
Procedure: as §3

CHIR-5.9: fully human anti-CD40 monoclonal antibody of the IgG1 isotype, hybridoma 131.2F8.5.9, ATCC PTA-5542, SEQ ID NO:6 and 7
killing of primary cancer cells by ADCC [1]: kill primary cancer cells from NHL patients by ADCC | binding to soluble CD40 [2]: bind soluble CD40 | specific binding to human CD40 ([3]; FACS analysis): bind specifically to human CD40 | displacement of CD40-ligand pre-bound to cell surface CD40 ([3]; flow cytometric assays): displace the pre-bound CD40-ligand; also recorded: can compete off CD40-ligand pre-bound to cell surface CD40 | prevention of CD40-ligand binding to cell-surface CD40 ([3]; flow cytometric assays): prevent the binding of CD40-ligand to cell-surface CD40; also recorded: can prevent CD40-ligand binding | CD40 ligand-mediated proliferation of cancer cells [4]: inhibiting in vitro CD40 ligand-mediated proliferation of cancer cells from NHL and CLL patients | effect on CD40 ligand-mediated proliferation of normal B cells ([5]; in vitro): act as antagonist anti-CD40 antibodies; also recorded: inhibit in vitro CD40 ligand-mediated proliferation of normal B cells | induction of proliferation of human lymphocytes (agonist activity) ([5]; lymphocytes from normal subjects, antibody alone): do not induce strong proliferation | ADCC activity, killing of CD40-expressing target cells [6]: have ADCC activity; also recorded: able to kill CD40-expressing target cells

B1: CD40L: CD40 ligand used as stimulus, presented on transfected, formaldehyde fixed CHO cells (protein)
chain: MIETYNQTSPRSAATGLPISMKIFMYLLTVFLITQMIGSALFAVYLHRRLDKIEDERNLHEDFVFMKTIQRCNTGERSLSLLNCEEIKSQFEGFVKDIMLNKEETKKENSFEMQKGDQNPQIAAHVISEASSKTTSVLQWAEKGYYTMSNNLVTLENGKQLTVKRQGLYYIYAQVTFCSNREASSQAPFIASLCLKSPGRFERILLRAANTHSSAKPCGQQSIHLGGVFELQPGASVFVNVTDPSQVSHGTGFTSFGLLKL
modifications: expressed on fixed CHO cells
CD40L-induced hGM-CSF secretion, folds of induction over background [7]: no induction | CD40L-induced hIL1-b secretion, folds of induction over background [7]: no induction | CD40L-induced hIL-12p70 secretion, folds of induction over background [7]: no induction | CD40L-induced hGM-CSF secretion, folds of induction over background ([8]; Donor 1, 24 hours): no induction | CD40L-induced hIL-1b secretion, folds of induction over background ([8]; Donor 1, 24 hours): no induction | CD40L-induced hIL-12p70 secretion, folds of induction over background ([8]; Donor 1, 24 hours): no induction | CD40L-induced hIL-1b secretion, folds of induction over background ([8]; Donor 2, 24 hours): no induction | CD40L-induced hGM-CSF secretion, folds of induction over background ([8]; Donor 3, 24 hours): no induction | CD40L-induced hIL-1b secretion, folds of induction over background ([8]; Donor 3, 24 hours): no induction | CD40L-induced hIL-12p70 secretion, folds of induction over background ([8]; Donor 3, 24 hours): no induction
